Target: CLDN18.2 (species not stated)
Assay: affinity measurement, method not described

Kd: 4.17 nM
Substance: IMAB362 (Zolbetuximab), positive control antibody

Source: patent CN117567617A
